Source: paper doi:10.1101/2022.01.11.475947

Biological target: Fusion protein of Nipah virus (F-clamp) (Nipah virus)
Test: SEC

Fusion protein of Nipah virus (F-clamp)
stoichiometry N: 3
